The target of this assay is 14-3-3τ (UniProt P27348). Kind of assay: split luciferase kinase inhibitor screen. To be noted: reference: DMSO-treated; sites S127.

In the case of “YAP (YAP1) 120-134 (from UniProt P46937) API-2 (PKB), 10 μM 4 h”, the fold change amounted to 10.6. The substance “YAP (YAP1) 120-134 (from UniProt P46937) BIO (GSKa/b), 10 μM 4 h” yielded a fold change of 14.4. In turn, “YAP (YAP1) 120-134 (from UniProt P46937) CGK 733 (ATM/ATR), 10 μM 4 h” yielded an other: suppressed fold change of 1.85. On the same count and under the same terms, the result for “YAP (YAP1) 120-134 (from UniProt P46937) ER 27319 (SYK), 10 μM 4 h” reads 3.71.

As to “YAP (YAP1) 120-134 (from UniProt P46937) GSK650394 (SGK), 10 μM 4 h”, the other: suppressed fold change came to 1.73.

“YAP (YAP1) 120-134 (from UniProt P46937) Genistein (EGFR), 10 μM 4 h” yielded a fold change of 6.12. Turning to “YAP (YAP1) 120-134 (from UniProt P46937) PD 98059 (MEK), 10 μM 4 h”, the fold change came to 16.9. The substance “YAP (YAP1) 120-134 (from UniProt P46937) PD 407824 (CHK1), 10 μM 4 h” registered an other: suppressed fold change of 1.73. Still for that read-out and setting: the figure for “YAP (YAP1) 120-134 (from UniProt P46937) Ro 08-2750 (TrkA), 10 μM 4 h” is 6.51; for “YAP (YAP1) 120-134 (from UniProt P46937) Ro 31-8220 (General), 10 μM 4 h” it is 5.21. In the case of “YAP (YAP1) 120-134 (from UniProt P46937) Ryuvidine (CDK4), 10 μM 4 h”, the fold change worked out at 5.88.

Take “YAP (YAP1) 120-134 (from UniProt P46937) SU 4312 (VEGFR1/2), 10 μM 4 h”: the fold change is 27.9.

The values are drawn from article PMC5849716.
